Data on one molecule can be found in paper PMC4938799, “LD Motif Recognition by Talin: Structure of the Talin-DLC1 Complex” (Structure(London, England:1993), 2016).

The subject of assay [1] is A549 human non-small cell lung cancer line. The assay is described as follows: G418 (monolayer) colony growth assay. Particulars: transfected A549, G418 for 3 weeks; mean over three experiments. The class given is cell-based. An excerpt:
(§1) Figure 6 Talin R8 Mutations Disrupt the Interaction with DLC1 and Affect Its Biological Activity (A) Wild-type GST-talin fragments pull down more DLC1 than the 2E mutants. Extracts of HEK293T cells transfected with GFP-DLC1 and GST-talin constructs were subjected to pull-down assays with glutathione beads followed by immunoblotting with anti-GST and anti-DLC1 on the same membrane (top). The transfected GFP-DLC1 in each sample is shown by the anti-DLC1 blot (bottom) as a loading control. (B) Wild-type GST-talin fragments compete efficiently with endogenous talin to form a complex with DLC1. The supernatants collected after pull-down assay from (A) were reused for co-immunoprecipitation with an anti-talin antibody and blotted with anti-DLC1 (top). A small aliquot from each lane was blotted for endogenous talin as a loading control (bottom). (C) Co-expression of GST or GST-talin fragments (wild-type or 2E mutant) with GFP DLC1 in A549 cells. […] Transfected A549 cells were cultured in G418 for 3 weeks, and colonies counted and quantitated (top). […] Transfected A549 cells were grown for 3 weeks in soft agar, and colonies counted and quantitated (top). […] Lysates from migrated cells were quantitated (top), and representative microscopic images of the migrated cells are shown (bottom). […]

Assay [2] has the same test system. As to the kind of experiment: Growth in soft agar. Particulars: transfected A549, 3 weeks; mean over three experiments. The class given is cell-based.
Excerpt: as §1

B1: GST-R8: GST-tagged talin R8, amino acids 1,453–1,580 (protein)
chain: NSQAGQQGLVEPTQFARANQAIQMACQSLGEPGCTQAQVLSAATIVAKHTSALCNSCRLASARTANPTAKRQFVQSAKEVANSTANLVKTIKALDGDFTEENRAQCRAATAPLLEAVDNLSAFASNPE
modifications: left off: GST, end not stated, kept
In the case of B1, in assay [1], the colony growth result is recorded as “no detectable biological activity”. The “growth in soft agar” value in assay [2] is reported as “no detectable biological activity”.
